These results are taken from patent US20080038735A1 (DOMANTIS, published 2008).

In test [1] the target is T1, TNFa (UniProt P01375 77-233, biotinylated (sites not given)).
T1 construct: also called biotinylated TNFa; bio-TNFa
As to the kind of experiment: ELISA: in vitro translated dAb captured on the plate, incubated with a concentration range of biotinylated TNFa, detected with streptavidin-HRP. The method, then: (§1) The ligation mixture was transformed to XL-10 gold cells (Stratagene) and cells were plated. […] The typical amplification cycle for this PCR is performed with platinum pfx DNA polymerase (invitrogen) and consists of: initial denaturation of 3 min at 95 C, followed by 25 cycles of 30 seconds at 95 C, 30 seconds at 60 C, and 2 minutes at 68 C; and a final extension at 68 C for 3 minutes. The PCR product is cleaned on a Qiagen spin column, eluted and the DNA concentration determined by OD 260/280. The cleaned PCR product is used for in vitro transcription/translation (IVT). A typical 50 μl IVT reaction consists of 500 ng of DNA, 2.0 λl methionine (5 mM), 1.5 μl oxidized glutathione (100 mM) (Sigma), 35 μl bacterial extract, e.g. EcoPro (Novagen), and 11 μl H₂O. The IVT reaction can be performed for 1 up to 4 hours at temperatures between 20 C and 37 C. After IVT, the reaction is diluted 1 in 10 in PBS+0.2% tween-20. Fifty μl are added to an ELISA plate, that has been coated with anti-HA (3F10, Roche) (1 μg/ml in PBS), and incubated for 1 hour at room temperature. After washing, a concentration range (0-500 nM) of biotinylated antigen, i.e. TNFa, is added and incubated on the plate for 1 hour. Again, plate is washed and streptavidin conjugated to horse radish peroxidase (Streptavidin-HRP, Amersham) at a dilution of 1:3500 is added and incubated on the plate for 30 minutes.
Background: In an ELISA, binding on a coated surface is turned into a signal by an enzyme label.

Test [2] deals with T1, TNFa. Briefly: not stated (told as a known affinity); higher affinity dAb, known affinity.
Test [3] addresses T1, TNFa. Briefly: ELISA: in vitro translated E5 construct captured on the plate, incubated with a concentration range of biotinylated TNFa, streptavidin-HRP; the sheet does not say whether E5 is free or fused to Tus. How it is done:
as §1

T1 sequence (P01375 77-233 limits assumed): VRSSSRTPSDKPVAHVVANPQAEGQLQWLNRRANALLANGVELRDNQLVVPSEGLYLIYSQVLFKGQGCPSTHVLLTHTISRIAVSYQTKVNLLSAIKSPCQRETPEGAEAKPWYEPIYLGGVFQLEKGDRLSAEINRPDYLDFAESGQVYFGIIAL

B1: Vk(TAR1-5-19) (other)
VL: MASTDIQMTQSPSSLSASVGDRVTITCRASQSIDSYLHWYQQKPGKAPKLLIYSASELQSGVPSRFSGSGSGTDFTLTISSLQPEDFATYYCQQVVWRPFTFGQGTKVEIKRAA
notes: Vk domain antibody tested as free dAb; also called free dAb; monomeric domain antibody in solution
B1: the “EC50 (read off the curve)” value in test [1] is about 7 nM. This molecule also yielded a dissociation constant (Kd) in test [2] of 50 nM.

B2: Vk(E5) (other)
VL: MASTDIQMTQSPSSLSASVGDRVTITCRASQSVSSYLNWYQQKPGKAPKLLIYLASRLQSGVPSRFSGSGSGTDFTLTISSLQPEDFATYYCQQNWWLPPTFGQGTKVEIKRAA
notes: also called Anti-beta-galactosidase Vk clone E5; 7t^3T.Vk(E5)
Consider B2, for which the binding result in test [3] is given as “no binding (tested: 1000 nM)”.

What is called EC50 (read off the curve) is the midpoint of the concentration-response curve. Low values mean an effect from little substance, high ones a need for much substance. The term Kd denotes the concentration at which binding is half-saturated.
